Paper PMC4267639, “The Mtr4 ratchet helix and arch domain both function to promote RNA unwinding”

Tests used:
Assay in all cases: fluorescence anisotropy; 0.5 mM MgCl2; FA: 40 mM MOPS pH 6.5, 100 mM NaCl, 0.5 mM MgCl2, 5% glycerol, 0.01% NP-40 substitute, 2 mM DTT, 60 nM RNA, 30 C; EMSA conditions not in material
Details in all cases: protein: recombinant; tags: vector pET151/D-TOPO; label: 3' fluorescein on R16; 3' overhang 6 nt (UAAAAA) on R22A, other end blunt; 16 bp
Mtr4 R1030A = biological target: T1, Mtr4 R1030A (Saccharomyces cerevisiae, UniProt P47047 1-1073, R1030A)
T1 sequence: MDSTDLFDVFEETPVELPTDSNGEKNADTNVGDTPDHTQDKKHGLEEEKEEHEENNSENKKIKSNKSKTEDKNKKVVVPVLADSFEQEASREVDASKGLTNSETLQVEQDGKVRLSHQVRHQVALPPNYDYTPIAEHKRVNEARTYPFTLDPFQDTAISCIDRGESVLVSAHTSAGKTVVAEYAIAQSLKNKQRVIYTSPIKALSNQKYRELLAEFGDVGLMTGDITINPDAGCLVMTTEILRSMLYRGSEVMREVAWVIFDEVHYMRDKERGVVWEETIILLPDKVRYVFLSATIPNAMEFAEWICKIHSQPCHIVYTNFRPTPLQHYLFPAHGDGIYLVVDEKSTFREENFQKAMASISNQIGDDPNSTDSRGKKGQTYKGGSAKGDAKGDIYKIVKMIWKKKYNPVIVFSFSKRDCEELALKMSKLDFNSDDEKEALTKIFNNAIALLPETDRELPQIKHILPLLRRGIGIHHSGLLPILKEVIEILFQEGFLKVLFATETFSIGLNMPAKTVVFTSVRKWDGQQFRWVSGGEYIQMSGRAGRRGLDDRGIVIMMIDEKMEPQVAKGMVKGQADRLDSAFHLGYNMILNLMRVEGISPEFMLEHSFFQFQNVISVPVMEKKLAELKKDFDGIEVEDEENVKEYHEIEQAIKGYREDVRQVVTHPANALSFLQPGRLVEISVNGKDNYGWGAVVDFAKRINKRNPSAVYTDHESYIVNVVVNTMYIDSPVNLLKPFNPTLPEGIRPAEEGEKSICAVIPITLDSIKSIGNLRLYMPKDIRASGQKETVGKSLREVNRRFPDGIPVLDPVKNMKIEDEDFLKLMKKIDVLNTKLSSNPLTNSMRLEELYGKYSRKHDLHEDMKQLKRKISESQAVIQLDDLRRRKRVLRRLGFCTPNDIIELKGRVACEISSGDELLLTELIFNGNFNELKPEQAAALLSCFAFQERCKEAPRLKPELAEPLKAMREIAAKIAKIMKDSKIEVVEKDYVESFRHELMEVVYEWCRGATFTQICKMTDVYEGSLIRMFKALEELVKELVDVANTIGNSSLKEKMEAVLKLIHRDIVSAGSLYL

Mtr4 E1033A = biological target: T2, Mtr4 E1033A (Saccharomyces cerevisiae, UniProt P47047 1-1073, E1033A)
T2 sequence: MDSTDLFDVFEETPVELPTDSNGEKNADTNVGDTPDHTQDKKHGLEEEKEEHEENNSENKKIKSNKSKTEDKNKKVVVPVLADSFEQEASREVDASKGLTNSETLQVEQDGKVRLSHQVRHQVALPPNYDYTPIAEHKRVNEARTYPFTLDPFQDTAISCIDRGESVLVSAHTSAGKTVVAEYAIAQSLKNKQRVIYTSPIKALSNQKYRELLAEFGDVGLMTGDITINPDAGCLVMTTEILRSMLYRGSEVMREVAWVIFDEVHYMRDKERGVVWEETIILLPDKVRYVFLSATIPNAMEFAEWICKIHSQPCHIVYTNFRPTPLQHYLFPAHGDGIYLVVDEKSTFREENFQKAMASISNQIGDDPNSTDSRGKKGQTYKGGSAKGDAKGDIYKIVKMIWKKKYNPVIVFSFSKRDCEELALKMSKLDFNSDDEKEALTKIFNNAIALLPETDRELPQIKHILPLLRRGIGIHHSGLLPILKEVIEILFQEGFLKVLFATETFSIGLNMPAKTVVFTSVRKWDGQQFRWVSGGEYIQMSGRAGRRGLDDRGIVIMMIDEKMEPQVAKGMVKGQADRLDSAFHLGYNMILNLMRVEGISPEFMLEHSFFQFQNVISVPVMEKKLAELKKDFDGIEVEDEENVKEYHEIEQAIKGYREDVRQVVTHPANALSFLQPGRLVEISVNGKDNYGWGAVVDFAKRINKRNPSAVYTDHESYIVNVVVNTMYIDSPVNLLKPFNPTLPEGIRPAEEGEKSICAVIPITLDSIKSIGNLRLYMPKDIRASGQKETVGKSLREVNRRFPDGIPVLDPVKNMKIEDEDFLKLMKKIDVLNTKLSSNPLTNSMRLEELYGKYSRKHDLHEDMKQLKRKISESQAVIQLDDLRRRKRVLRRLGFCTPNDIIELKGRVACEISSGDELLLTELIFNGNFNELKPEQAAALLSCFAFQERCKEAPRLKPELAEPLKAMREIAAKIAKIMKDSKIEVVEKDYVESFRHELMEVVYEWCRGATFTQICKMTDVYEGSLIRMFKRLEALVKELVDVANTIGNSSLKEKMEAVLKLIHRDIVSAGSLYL

Mtr4 WT = biological target: T3, Mtr4 WT (Saccharomyces cerevisiae, UniProt P47047)
T3 sequence: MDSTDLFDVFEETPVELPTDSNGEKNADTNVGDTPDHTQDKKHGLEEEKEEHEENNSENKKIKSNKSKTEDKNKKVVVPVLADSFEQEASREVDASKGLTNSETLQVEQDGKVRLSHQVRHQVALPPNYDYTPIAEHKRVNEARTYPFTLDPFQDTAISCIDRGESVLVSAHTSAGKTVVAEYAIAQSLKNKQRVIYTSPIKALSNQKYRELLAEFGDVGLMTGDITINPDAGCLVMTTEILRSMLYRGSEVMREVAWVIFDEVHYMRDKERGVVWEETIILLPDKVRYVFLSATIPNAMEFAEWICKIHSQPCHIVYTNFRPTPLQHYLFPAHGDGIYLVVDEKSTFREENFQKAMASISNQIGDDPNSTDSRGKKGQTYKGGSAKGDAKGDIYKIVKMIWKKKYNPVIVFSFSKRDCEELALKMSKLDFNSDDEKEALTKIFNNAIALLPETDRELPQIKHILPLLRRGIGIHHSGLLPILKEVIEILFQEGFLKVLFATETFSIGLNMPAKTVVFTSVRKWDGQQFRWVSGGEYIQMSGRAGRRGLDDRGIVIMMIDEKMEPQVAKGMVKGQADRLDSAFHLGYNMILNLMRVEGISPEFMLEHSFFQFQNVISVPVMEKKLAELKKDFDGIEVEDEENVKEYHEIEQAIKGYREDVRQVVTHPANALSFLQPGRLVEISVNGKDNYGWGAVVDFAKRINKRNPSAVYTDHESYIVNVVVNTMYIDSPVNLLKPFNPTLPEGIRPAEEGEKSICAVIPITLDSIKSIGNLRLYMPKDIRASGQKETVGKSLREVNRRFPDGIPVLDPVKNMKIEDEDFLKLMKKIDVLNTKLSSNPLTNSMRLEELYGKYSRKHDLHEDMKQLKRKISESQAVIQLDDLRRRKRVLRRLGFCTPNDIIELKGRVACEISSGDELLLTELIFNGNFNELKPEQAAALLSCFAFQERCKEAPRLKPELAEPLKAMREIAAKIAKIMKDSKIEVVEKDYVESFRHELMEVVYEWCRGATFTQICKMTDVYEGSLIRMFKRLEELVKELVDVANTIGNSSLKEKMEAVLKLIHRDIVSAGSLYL

B1: poly(A) substrate R22A/R16, fluorescein (dsRNA)
RNA 1: GCGUCUUUACGGUGCUUAAAAA
RNA 2: AGCACCGUAAAGACGC
B1 gave a Kd (Mtr4 R1030A) of 2600 ± 1000 nM, a Kd (Mtr4 E1033A) of 2000 ± 600 nM and a Kd (Mtr4 WT) of 2800 ± 900 nM.
